Measurements published in US20260049160A1 (Hoffmann-La Roche, published 2026).

Columns and labels:
[1] = target: T1, biotinylated Tim3-ECD-AviHis (human, UniProt Q8TDQ0 22-202, biotinylated (Avi tag)); assay: ELISA on biotinylated Tim3-ECD-AviHis
T1 construct: extracellular domain; also called huTIM3; hu Tim3; not shown: Avi and His tags

[2] = target: T2, biotinylated PD1-ECD-AviHis (human, UniProt Q15116 25-170, biotinylated (Avi tag)); assay: ELISA, biotinylated PD1-ECD-AviHis on streptavidin plates
T2 construct: extracellular domain; also called huPD1; hu PD1; not shown: Avi and His tags

binding result [1]: no binding
EC50 [2]: 0.12 nM
B1: Chimeric PD1-0103 (antibody, V domains shown)
VH: EVILVESGGGLVKPGGSLKLSCAASGFSFSSYTMSWVRQTPEKRLDWVATISGGGRDIYYPDSVKGRFTISRDNAKNTLYLEMSSLMSEDTALYYCVLLTGRVYFALDSWGQGTSVTVSS
VL: KIVLTQSPASLPVSLGQRATISCRASESVDTSDNSFIHWYQQRPGQSPKLLIYRSSTLESGVPARFSGSGSRTDFTLTIDPVEADDVATYYCQQNYDVPWTFGGGTKLEIK
notes: Bivalent IgG; also called PD1 IgG (bivalent); copies: 2 + 2
